Test results taken from paper PMC9530208, “MutS functions as a clamp loader by positioning MutL on the DNA during mismatch repair”.

Experiments:
[1] = molecular target: MutL(R-E) R162E;R266E;R316E (Escherichia coli) (UniProt P23367); test: smTIRF; settings: 30 mM NaCl, 2 nM protein; single mismatch; smTIRF: 20 mM Tris-HCl pH 7.5, 0.1 mM DTT, 0.2 mg/mL acetylated BSA, 0.0025% P-20, 5 mM MgCl2, 100 mM NaCl (Buffer C), 1 mM ATP or AMP-PNP; NaCl varied …; scale: fold fewer binding events than wild-type MutL
[2] = system: MutL(R266E) (Escherichia coli); test: smTIRF; settings: 30 mM NaCl, 2 nM protein; single mismatch; smTIRF: 20 mM Tris-HCl pH 7.5, 0.1 mM DTT, 0.2 mg/mL acetylated BSA, 0.0025% P-20, 5 mM MgCl2, 100 mM NaCl (Buffer C), 1 mM ATP or AMP-PNP; NaCl varied …; scale: fold fewer binding events than wild-type MutL
MutL (Escherichia coli) = MutL (Escherichia coli) (UniProt P23367); test: smTIRF; settings: ATP, no MutS, 10 mM NaCl, 10 nM MutL; single mismatch; smTIRF: 20 mM Tris-HCl pH 7.5, 0.1 mM DTT, 0.2 mg/mL acetylated BSA, 0.0025% P-20, 5 mM MgCl2, 100 mM NaCl (Buffer C), 1 mM ATP or AMP-PNP; NaCl varied …; scale: fraction of DNA molecules with MutL sliding clamp
[3] = molecular target: MutS;MutL (Escherichia coli;Escherichia coli) (UniProt P23367); test: smTIRF; settings: ATP, 10 nM MutL, single mismatch, smTIRF: 20 mM Tris-HCl pH 7.5, 0.1 mM DTT, 0.2 mg/mL acetylated BSA, 0.0025% P-20, 5 mM MgCl2, 100 mM NaCl (Buffer C), 1 mM ATP or AMP-PNP, NaCl varied …, scale: fraction of DNA molecules with MutL sliding clamp
MutS-bio;MutL = MutS-bio;MutL (Escherichia coli;Escherichia coli, UniProt P23909;P23367 1-853;1-615, |); test: smTIRF; ATP; immobilized MutS-bio, MutL co-localization lifetime 29 +/- 2 s; smTIRF: 20 mM Tris-HCl pH 7.5, 0.1 mM DTT, 0.2 mg/mL acetylated BSA, 0.0025% P-20, 5 mM MgCl2, 100 mM NaCl (Buffer C), 1 mM ATP or AMP-PNP; NaCl varied 10-100 mM; Mg2+ omitted for MutL-only binding per reviewer comment; temperature not given; settings: protein: recombinant;recombinant; chain copies: 2;2; label: 5'-biotin on both strands; blunt, single G/T mismatch at position 32 of strand 1

Row | Molecule | binding signal [1] | binding signal [2] | binding signal (MutL (Escherichia coli)) | binding signal ([3]; loaded at 10 mM NaCl) | binding signal ([3]; loaded at 100 mM NaCl) | binding result (MutS-bio;MutL)
1 | 18.4-kb mismatched DNA | 30 | 3 | 0.25 | 0.567 | 0.073 | 
2 | 59-bp mismatched DNA (dsDNA) DNA 1: CGCGGGTTTTCGCTATTTATGAAAATTTTCCGGTTTAAGGCGTTTCCGTTCTTCTTCGT DNA 2: ACGAAGAAGAACGGAAACGCCTTAAACTGGAAAATTTTCATAAATAGCGAAAACCCGCG |  |  |  |  |  | binds
